The results in this text go back to patent US20120219551A1.

In one assay the target is CD32B-G2Ag (human) (UniProt P31994). Description: relative off-rate wt/variant; method not given (BIAcore elsewhere). On the technique in general: SPR reads the build-up and loss of mass on a sensor chip optically.
A further assay concerns the target CD32A-G2Ag (human) (UniProt P12318). The assay is described as above.
The next assay addresses CD16A(V158) (human) (UniProt P08637). Described as above.
The target in the next assay is CD16A(F158) (human) (UniProt P08637). The assay is described as above.
Chain of CD16A(F158) (human) (P08637 17-208): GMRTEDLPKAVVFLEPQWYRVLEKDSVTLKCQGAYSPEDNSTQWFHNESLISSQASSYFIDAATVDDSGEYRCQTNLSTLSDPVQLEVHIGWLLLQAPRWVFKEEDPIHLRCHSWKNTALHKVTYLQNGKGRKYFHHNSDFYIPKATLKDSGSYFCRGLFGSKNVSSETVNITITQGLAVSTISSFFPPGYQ
The target of assay [1] is FcγRIIB, soluble dimeric protein (extracellular domain fused to the hinge-CH2-CH3 domain of human IgG2) (human) (UniProt P31994). Description: ELISA. On the technique in general: An ELISA detects its analyte on a solid surface through an enzyme-linked reagent.
Chain of FcγRIIB, soluble dimeric protein (extracellular domain fused to the hinge-CH2-CH3 domain of human IgG2) (human) (P31994 43-217): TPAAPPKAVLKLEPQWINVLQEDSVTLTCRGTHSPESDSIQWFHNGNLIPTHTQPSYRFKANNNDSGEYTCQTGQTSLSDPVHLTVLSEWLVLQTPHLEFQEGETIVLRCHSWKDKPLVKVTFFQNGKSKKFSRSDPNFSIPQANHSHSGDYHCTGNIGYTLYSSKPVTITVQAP
Assay [2] addresses FcγRIIIA, soluble monomeric protein (extracellular region joined to the linker-AVITAG sequence) (human) (UniProt P08637). Description: ELISA.
Target sequence in this assay (P08637 17-208 F176V limits assumed): as the sequence (P08637 17-208) above, with F160V counted along it
Assay [3] shares this target. Description: yeast display FACS, biotinylated receptor chased with unlabeled receptor.
Target sequence in this assay (P08637 17-208 F176V limits assumed, form in doubt): as the sequence (P08637 17-208) above, with F160V counted along it
In assay [4] the target is FcγRIIIA on natural killer cells of human donor PBMC (human) (UniProt P08637). The experiment in a line: cell-based or functional assay.
Chain of FcγRIIIA on natural killer cells of human donor PBMC (human) (P08637 17-254): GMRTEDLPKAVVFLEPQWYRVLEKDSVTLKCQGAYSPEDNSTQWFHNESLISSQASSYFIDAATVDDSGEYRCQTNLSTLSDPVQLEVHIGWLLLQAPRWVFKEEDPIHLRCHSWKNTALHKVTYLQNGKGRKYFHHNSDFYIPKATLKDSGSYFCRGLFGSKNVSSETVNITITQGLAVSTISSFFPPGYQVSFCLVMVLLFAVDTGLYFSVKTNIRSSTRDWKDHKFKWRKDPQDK
Assay [5] has as its target soluble dimeric FcγRIIB-Fc fusion protein (extracellular domain of FcγRIIB fused to hinge-CH2-CH3 of human IgG2) (human) (UniProt P31994). Description: SPR (BIAcore), Fc mutant in ch4-4-20, off rate relative to wild type.
Assay [6] deals with soluble monomeric FcγRIIIA 158V (extracellular region joined to linker-AVITAG) (human) (UniProt P08637). The description is as above.
Chain of soluble monomeric FcγRIIIA 158V (extracellular region joined to linker-AVITAG) (human) (P08637 17-208 F176V): as the sequence (P08637 17-208) above, with F160V counted along it
Assay [7] concerns the target soluble dimeric FcγRIIB-Fc fusion protein (extracellular domain of FcγRIIB fused to hinge-CH2-CH3 of human IgG2) (human) (UniProt P31994). Description: ELISA of FcγRIIB binding, OD printed beside the sensorgram (Table 15 prints 0.08).
In assay [8] the target is soluble monomeric FcγRIIIA (extracellular region of FcγRIIIA joined to the linker-AVITAG sequence) (human) (UniProt P08637). The experiment in a line: BIAcore: FcγRIIIA at 200 nM and 800 nM over ch4-4-20 captured on BSA-FITC; separate fit, average of the two concentrations (Table 14 prints 0.075).
Chain of soluble monomeric FcγRIIIA (extracellular region of FcγRIIIA joined to the linker-AVITAG sequence) (human) (P08637 17-208): as the sequence (P08637 17-208) above
For assay [9], the target named is soluble dimeric FcγRIIB-Fc fusion protein (extracellular domain of FcγRIIB fused to hinge-CH2-CH3 of human IgG2) (human) (UniProt P31994). The experiment in a line: ELISA.
Chain of soluble dimeric FcγRIIB-Fc fusion protein (extracellular domain of FcγRIIB fused to hinge-CH2-CH3 of human IgG2) (human) (P31994 43-217): as the sequence (P31994 43-217) above
Assay [10] has as its target soluble monomeric FcγRIIIA (extracellular region of FcγRIIIA joined to the linker-AVITAG sequence) (human) (UniProt P08637). The experiment in a line: ELISA.
The target is the same in assay [11]. The experiment in a line: BIAcore: FcγRIIIA at 200 nM and 800 nM over ch4-4-20 captured on BSA-FITC; separate fit, average of the two concentrations (Table 14 prints 90).
Assay [12] addresses soluble dimeric FcγRIIB-Fc fusion protein (extracellular domain of FcγRIIB fused to hinge-CH2-CH3 of human IgG2) (human) (UniProt P31994). The experiment in a line: SPR (BIAcore), Ab captured on BSA-FITC, separate fit 200/800 nM.
For assay [13], the target named is soluble monomeric FcγRIIIA (extracellular region of FcγRIIIA joined to the linker-AVITAG sequence) (human) (UniProt P08637). Described as above.
The target in assay [14] is soluble dimeric FcγRIIB-Fc fusion protein (extracellular domain of FcγRIIB fused to hinge-CH2-CH3 of human IgG2) (human) (UniProt P31994). Description: BIAcore: FcγRIIB-Fc fusion at two concentrations over ch4-4-20 captured on BSA-FITC; separate fit, average of the two concentrations (Table 15 prints 0.085).
Assay [15] deals with FcγRIIIA (CD16A), V158 allotype (human) (UniProt P08637). The experiment in a line: BIAcore.
Chain of FcγRIIIA (CD16A), V158 allotype (human) (P08637 17-208 F176V limits assumed): as the sequence (P08637 17-208) above, with F160V counted along it
Assay [16] concerns the target FcγRIIB (CD32B) (human) (UniProt P31994). Description: BIAcore.
In assay [17] the target is FcγRIIIA (CD16A), F158 allotype (human) (UniProt P08637). The experiment in a line: BIAcore.
Chain of FcγRIIIA (CD16A), F158 allotype (human) (P08637 17-208 limits assumed): as the sequence (P08637 17-208) above
In assay [18] the target is FcγRIIA (CD32A), H131 allotype (human) (UniProt P12318). Description: BIAcore.
Chain of FcγRIIA (CD32A), H131 allotype (human) (P12318 34-217 limits assumed): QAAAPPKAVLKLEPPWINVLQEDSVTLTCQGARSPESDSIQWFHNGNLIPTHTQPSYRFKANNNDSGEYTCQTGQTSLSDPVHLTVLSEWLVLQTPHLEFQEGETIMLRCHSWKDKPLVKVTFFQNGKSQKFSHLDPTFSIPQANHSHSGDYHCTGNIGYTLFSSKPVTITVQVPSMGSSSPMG
Assay [19] has as its target FcγRIIB (CD32B) (human) (UniProt P31994). Description: BIAcore (as Table 27); cells shifted one column to the left.
The target of assay [20] is FcγRIIIA (CD16A), V158 allotype (human) (UniProt P08637). The experiment in a line: BIAcore (as Table 27).
Assay [21] addresses FcγRIIB (CD32B) (human) (UniProt P31994). Description: BIAcore (as Table 27).
For assay [22], the target named is FcγRIIIA (CD16A), V158 allotype (human) (UniProt P08637). The experiment in a line: not stated; human FcRs.
The target of assay [23] is FcγRIIB (CD32B) (human) (UniProt P31994). The experiment in a line: not stated; human FcRs.
Chain of FcγRIIB (CD32B) (human) (P31994 43-217 limits assumed): as the sequence (P31994 43-217) above
The target in assay [24] is FcγRIIIA (CD16A), F158 allotype (human) (UniProt P08637). The experiment in a line: not stated; human FcRs.
The target of assay [25] is FcγRIIA (CD32A), H131 allotype (human) (UniProt P12318). Description: not stated; human FcRs.
The target of assay [26] is FcγRIIIA (CD16A), F158 allotype (human) (UniProt P08637). Description: BIAcore (as Table 27).
For assay [27], the target named is 2bFcagl (FcγRIIB-Fc fusion) (human) (UniProt P31994).
Chain of 2bFcagl (FcγRIIB-Fc fusion) (human) (P31994 43-217): as above
The target in assay [28] is FcγRIIIA (CD16A), V158 allotype (human) (UniProt P08637).
The target in assay [29] is 2aRFcagl (FcγRIIA 131R-Fc fusion) (human) (UniProt P12318).
Chain of 2aRFcagl (FcγRIIA 131R-Fc fusion) (human) (P12318 34-217 H167R): as the sequence (P12318 34-217 limits assumed) above, with H134R counted along it
For assay [30], the target named is 2aHFcagl (FcγRIIA 131H-Fc fusion) (human) (UniProt P12318).
Chain of 2aHFcagl (FcγRIIA 131H-Fc fusion) (human) (P12318 34-217): as the sequence (P12318 34-217 limits assumed) above
The target in assay [31] is FcγRIIIA (CD16A), F158 allotype (human) (UniProt P08637).

In general, koff refers to a measure of how fast the partners let go of each other. Low readings indicate slow dissociation, high ones fast dissociation. The pKd is the Kd on a negative log10 scale, so that one unit is a factor of ten. The term kon denotes the rate constant with which the complex forms. Read a low kon as slow association.

pKd: −log10 of the molar value. Several values for one entry are separate records, joined by “and”; a condition that tells them apart may be missing. Identical values can stand only once.

Chain of CD32A-G2Ag (human) (P12318 34-217): as the sequence (P12318 34-217 limits assumed) above
Chain of CD32B-G2Ag (human) (P31994 43-217): as the sequence (P31994 43-217) above
Chain of CD16A(V158) (human) (P08637 17-208 F176V): as the sequence (P08637 17-208) above, with F160V counted along it

On to “Antibody 2B6 3.5 Fc Variant 48 (F243L, R292P, V305I)”, for which the Koff ratio (wt/mut) stood at 0.2 wt/mut with CD32B-G2Ag (human), 0.1 wt/mut with CD32A-G2Ag (human), 2.6 wt/mut with CD16A(V158) (human) and 1.4 wt/mut with CD16A(F158) (human).
The like results for “Antibody ch2.4G2 Fc Variant 51 (F243L, R292P, Y300L, V305I, P396L)” were, in that order, 3.2 wt/mut, 1.4 wt/mut, 10.1 wt/mut and 8.3 wt/mut.
For the substance “Fc variant D221Y, M252I, A330G, A339T, T359N, V422I, H433L (antibody)”, the fold change vs WT in [1] came to 6 fold.
The same measure, in the same setting: as for “Fc variant D399E, R292L, V185M (antibody)”, the figure is 0.5 fold.
Turning to Fc variant E258D, N384K (antibody), the fold change vs WT in assay [1] came out at 4 fold; in [2], 1.25 fold.
On to “Fc variant K317N, F423-deleted (antibody)”, for which the fold change vs WT in assay [1] came to 7 fold.
Take Fc variant K370N, S440N (antibody): the fold change vs WT in assay [1] was 3.5 fold.
Substance “Fc variant P396L (from UniProt P01857 1-330) (antibody)” displayed a loss of cell staining after 1 minute with unlabeled FcγRIIIA in [3] of 50%.
For Fc variant S415I, L251F (antibody), the fold change vs WT in assay [1] was determined as 0.75 fold; in assay [2] it was 0.5 fold.
In [4], “ch4-4-20 MgFc43 (Y319F, P352L, P396L) (antibody)” displayed a Relative rate of lysis (ADCC, vs wild type ch4-4-20) of 1.09. Further, the Koff WT/Mut in assay [5] stood at 2.29; in assay [6], 1.23.
On the same counts, the results for “ch4-4-20 MgFc43b (K288R, T307A, K344E, P396L) (antibody)” are 3.3, 0.89 and 1.27.
The like results for “ch4-4-20 MgFc49 (K261N, K210M, P396L) (antibody)” were, in that order, 2.06, 0.85 and 1.29.
Regarding “ch4-4-20 Mut11 (R255L, F243L) (antibody)”, the results for the ELISA, OD in [7], in assay [9] and in [10] were 0.1 OD, 0.08 OD and 0.37 OD, respectively. Also, the koff in assay [8] came to 0.073 s⁻¹; in assay [12] it was 0.1 s⁻¹; in [13] it was 0.075 s⁻¹. This substance also gave an ADCC, % in [4] of 32%. In addition, the pKd is 7.04 in assay [11], 7.08 in assay [12] and 7.05 in [13]. The same substance had a kon in assay [13] of 822000 M⁻¹ s⁻¹.
As to “ch4-4-20 wild type (chimeric anti-fluorescein antibody, IgG1)”, the koff was 0.0847 s⁻¹ in [14] and 0.085 s⁻¹ in [12]. For the same substance, the values for the ELISA, OD in assay [9] and in assay [10] were 0.4 OD and 0.5 OD, respectively. Also, in assay [4], the ADCC, % came to 17.5%. For the same substance, the pKd in assay [12] was 7.21; in assay [13], 6.50.
Consider “immunoglobulin with Fc variant D270E, G316D, P396L, R416G (antibody)”, for which the Koff WT/Koff mutant came out at 1.22 in [15]; 1.07 with FcγRIIB (CD32B) (human) [16]; 0.94 in assay [17]; 0.95 in assay [18]; 1.07 with FcγRIIB (CD32B) (human) [19]; 1.22 in assay [20]. The substance further displayed a Koff WT/Koff mutant with FcγRIIB (CD32B) (human) [21] of 1.07.
With “immunoglobulin with Fc variant F243L, R292P (antibody)”, the Koff WT/Koff mutant is 4.73 and 4 in assay [15]; 0.12 and 0.16 with FcγRIIB (CD32B) (human) [16]; 0.6 and 1.67 in assay [17]; 0.34 and 0.52 in assay [18]; 0.12 in the assay with FcγRIIB (CD32B) (human) [19]; 4.73 and 4 in [20]. In addition, the Koff WT/Koff mutant is 0.12 and 0.16 with FcγRIIB (CD32B) (human) [21]; 1.67 in assay [26]. Further, the fold change vs wild-type affinity in assay [22] is 3 fold; in the assay with FcγRIIB (CD32B) (human) [23], -5.3 fold; in assay [24] it was 0.7 fold; in [25], -0.9 fold.
Turning to “immunoglobulin with Fc variant L234F, F243L, R292P, Y300L (antibody)”, the binding relative to wt (wt = 1) in assay [27] was 0.2; in assay [28], 1.7; in assay [29], 0.2; in assay [30] it was 0.3; in assay [31], 1.6.
In the case of “immunoglobulin with Fc variant L235I, F243L, R292P, Y300L (antibody)”, the binding relative to wt (wt = 1) in [27] was determined as 0.2; in assay [28], 2.6; in assay [29], 0.1; in assay [30], 0.5; in [31], 3.3.
Regarding “immunoglobulin with Fc variant L235Q, F243L, R292P, Y300L (antibody)”, the binding relative to wt (wt = 1) was 1.8 in assay [28] and 0.2 in assay [30].
